Neurite outgrowth of primary embryonic sensory neurons cultured for 2 weeks with MMP-9-PEX (100 nM), quantified as GAP-43 mRNA compared to GST and neurite outgrowth of primary embryonic sensory neurons cultured for 2 weeks with RBD, compared to GST controls data for two molecules are collected here from article PMC3781060.

The target of assay [1] is low-density lipoprotein (LDL) receptor-related protein-1 (LRP1) (rat (endogenous in PC12 cells and primary DRG neurons)) (UniProt G3V928).
Assay [2] shares this target. The source holds these as a separate data set.

UniProt G3V928, sequence (G3V928 20-4545): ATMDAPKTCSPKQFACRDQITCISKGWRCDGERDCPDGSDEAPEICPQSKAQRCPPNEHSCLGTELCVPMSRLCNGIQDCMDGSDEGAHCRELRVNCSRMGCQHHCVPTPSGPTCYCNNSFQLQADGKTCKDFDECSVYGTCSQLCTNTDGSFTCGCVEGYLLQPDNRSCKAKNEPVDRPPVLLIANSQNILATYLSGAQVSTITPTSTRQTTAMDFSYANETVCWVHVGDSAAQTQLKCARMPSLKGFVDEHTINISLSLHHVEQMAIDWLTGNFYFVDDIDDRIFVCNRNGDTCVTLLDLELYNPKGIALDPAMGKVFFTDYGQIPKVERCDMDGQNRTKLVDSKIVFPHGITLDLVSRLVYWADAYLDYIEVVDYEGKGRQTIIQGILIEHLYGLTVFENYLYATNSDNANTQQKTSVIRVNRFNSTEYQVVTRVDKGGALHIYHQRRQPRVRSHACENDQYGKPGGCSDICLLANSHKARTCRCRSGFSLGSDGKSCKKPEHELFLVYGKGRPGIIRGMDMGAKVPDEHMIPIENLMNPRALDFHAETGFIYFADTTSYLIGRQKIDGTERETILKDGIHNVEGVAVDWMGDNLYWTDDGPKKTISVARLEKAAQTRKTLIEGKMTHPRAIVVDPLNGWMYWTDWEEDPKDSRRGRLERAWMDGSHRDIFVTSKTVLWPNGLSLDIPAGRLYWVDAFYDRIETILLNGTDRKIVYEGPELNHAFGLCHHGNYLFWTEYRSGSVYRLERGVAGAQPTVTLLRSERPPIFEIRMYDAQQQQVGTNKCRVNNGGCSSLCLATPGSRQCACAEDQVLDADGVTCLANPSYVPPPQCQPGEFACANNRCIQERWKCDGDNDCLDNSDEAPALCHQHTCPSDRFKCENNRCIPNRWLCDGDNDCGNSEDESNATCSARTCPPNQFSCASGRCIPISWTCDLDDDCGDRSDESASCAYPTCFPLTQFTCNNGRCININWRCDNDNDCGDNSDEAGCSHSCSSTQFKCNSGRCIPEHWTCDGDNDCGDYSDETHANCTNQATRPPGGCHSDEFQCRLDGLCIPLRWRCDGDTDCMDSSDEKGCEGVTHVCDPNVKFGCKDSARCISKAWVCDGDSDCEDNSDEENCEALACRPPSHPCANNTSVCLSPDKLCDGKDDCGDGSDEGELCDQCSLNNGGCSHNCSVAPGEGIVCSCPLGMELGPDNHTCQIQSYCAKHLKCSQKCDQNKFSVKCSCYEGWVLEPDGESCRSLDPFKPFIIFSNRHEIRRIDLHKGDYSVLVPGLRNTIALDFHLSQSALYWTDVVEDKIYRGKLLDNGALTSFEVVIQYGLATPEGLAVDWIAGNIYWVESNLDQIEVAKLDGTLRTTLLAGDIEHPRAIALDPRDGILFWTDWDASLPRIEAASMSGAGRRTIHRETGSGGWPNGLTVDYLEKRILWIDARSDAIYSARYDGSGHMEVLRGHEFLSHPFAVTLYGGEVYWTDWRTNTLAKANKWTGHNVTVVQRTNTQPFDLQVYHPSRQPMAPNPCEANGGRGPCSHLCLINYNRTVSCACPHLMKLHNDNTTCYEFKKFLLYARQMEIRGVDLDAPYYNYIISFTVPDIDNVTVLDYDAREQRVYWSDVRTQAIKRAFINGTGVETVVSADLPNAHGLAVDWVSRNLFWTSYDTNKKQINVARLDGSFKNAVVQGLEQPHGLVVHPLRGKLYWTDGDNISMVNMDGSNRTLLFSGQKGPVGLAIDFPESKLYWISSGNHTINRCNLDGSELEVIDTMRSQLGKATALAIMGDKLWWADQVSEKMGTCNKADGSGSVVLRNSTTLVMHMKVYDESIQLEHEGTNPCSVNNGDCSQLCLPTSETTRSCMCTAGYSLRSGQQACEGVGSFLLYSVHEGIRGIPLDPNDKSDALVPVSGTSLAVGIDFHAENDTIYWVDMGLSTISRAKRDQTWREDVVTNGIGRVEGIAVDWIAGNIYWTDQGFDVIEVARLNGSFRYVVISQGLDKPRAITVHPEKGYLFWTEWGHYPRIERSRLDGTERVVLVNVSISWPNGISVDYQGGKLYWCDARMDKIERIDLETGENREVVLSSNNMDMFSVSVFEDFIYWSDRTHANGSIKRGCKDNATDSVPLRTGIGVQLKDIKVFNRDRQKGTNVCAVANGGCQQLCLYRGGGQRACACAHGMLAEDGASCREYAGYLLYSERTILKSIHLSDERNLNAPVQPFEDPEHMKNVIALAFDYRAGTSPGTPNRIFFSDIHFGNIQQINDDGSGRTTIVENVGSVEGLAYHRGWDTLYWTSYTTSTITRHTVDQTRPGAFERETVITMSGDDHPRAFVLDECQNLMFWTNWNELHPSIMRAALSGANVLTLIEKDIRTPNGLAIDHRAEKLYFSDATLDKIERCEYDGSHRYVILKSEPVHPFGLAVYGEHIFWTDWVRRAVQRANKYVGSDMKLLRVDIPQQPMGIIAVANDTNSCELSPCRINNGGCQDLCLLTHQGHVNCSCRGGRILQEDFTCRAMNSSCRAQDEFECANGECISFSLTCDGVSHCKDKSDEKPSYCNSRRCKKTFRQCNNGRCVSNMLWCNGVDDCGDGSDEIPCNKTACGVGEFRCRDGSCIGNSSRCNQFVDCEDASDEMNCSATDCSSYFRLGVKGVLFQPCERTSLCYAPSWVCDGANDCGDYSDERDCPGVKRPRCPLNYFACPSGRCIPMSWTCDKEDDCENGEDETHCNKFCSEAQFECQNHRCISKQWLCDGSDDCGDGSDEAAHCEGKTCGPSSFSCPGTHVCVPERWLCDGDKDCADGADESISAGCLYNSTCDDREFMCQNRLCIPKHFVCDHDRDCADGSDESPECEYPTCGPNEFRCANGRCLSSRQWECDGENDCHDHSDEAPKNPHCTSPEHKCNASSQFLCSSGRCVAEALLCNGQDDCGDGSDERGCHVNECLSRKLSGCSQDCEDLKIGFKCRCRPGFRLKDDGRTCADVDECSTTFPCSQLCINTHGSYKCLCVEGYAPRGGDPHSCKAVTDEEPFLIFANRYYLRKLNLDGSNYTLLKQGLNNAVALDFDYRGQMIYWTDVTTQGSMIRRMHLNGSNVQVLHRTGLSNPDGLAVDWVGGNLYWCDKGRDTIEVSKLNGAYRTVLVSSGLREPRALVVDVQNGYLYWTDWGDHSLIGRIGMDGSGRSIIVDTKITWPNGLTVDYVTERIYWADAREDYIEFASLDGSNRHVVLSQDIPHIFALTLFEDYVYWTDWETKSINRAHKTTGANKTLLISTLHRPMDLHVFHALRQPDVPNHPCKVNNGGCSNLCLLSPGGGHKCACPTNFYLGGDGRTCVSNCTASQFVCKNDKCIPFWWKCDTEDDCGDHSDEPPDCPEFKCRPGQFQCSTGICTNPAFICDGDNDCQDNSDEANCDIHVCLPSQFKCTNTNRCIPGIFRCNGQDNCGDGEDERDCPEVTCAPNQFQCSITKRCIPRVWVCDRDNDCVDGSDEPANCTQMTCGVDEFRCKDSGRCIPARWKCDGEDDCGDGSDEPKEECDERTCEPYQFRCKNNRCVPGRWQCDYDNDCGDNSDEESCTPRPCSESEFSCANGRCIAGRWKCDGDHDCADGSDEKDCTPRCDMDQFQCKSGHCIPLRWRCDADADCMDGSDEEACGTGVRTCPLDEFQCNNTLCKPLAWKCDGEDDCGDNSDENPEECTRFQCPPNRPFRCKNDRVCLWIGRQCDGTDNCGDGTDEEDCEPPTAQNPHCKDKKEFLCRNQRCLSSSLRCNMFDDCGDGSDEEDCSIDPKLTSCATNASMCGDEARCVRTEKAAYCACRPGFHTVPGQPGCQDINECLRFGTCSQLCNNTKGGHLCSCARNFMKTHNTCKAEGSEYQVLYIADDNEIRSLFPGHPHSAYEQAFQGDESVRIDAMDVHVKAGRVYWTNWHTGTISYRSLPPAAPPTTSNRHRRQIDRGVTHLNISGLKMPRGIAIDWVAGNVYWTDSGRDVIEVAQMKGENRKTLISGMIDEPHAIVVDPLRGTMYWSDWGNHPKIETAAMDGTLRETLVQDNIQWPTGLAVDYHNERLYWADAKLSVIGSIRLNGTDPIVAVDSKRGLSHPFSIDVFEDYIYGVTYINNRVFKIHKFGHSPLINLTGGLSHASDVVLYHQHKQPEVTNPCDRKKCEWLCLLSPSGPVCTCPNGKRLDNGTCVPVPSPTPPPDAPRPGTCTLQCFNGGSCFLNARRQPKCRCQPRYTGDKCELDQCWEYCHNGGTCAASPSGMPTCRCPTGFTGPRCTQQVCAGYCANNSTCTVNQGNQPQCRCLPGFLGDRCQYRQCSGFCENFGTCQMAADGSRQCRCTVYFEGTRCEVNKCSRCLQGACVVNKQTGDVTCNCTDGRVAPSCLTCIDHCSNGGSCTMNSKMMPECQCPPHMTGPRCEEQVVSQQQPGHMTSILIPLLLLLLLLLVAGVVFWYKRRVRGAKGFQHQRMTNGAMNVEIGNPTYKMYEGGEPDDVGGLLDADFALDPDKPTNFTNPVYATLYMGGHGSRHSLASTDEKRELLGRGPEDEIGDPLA

Consider “GST fusion protein of the hemopexin domain of matrix metalloprotease-9 (MMP-9-PEX) (domain or fragment)”, for which the neurite outgrowth of primary embryonic sensory neurons cultured for 2 weeks with MMP-9-PEX (100 nM), quantified as GAP-43 mRNA compared to GST in assay [1] was found to be 15 fold.

B1: GST fusion protein of the Receptor Binding Domain of α2-macroglobulin (RBD) (domain or fragment)
chain: GAATFTRTGKAAQVTIQSSGTFSSKFQVDNNNRLLLQQVSLPELPGEYSMKVTGEGCVYLQTSLKYNILPEKEEFPFALGVQTLPQTCDEPKAHTSFQISLSVSYTGSRSASNMAIVDVKMVSGFIPLKPTVKMLERSNHVSRTEVSSNHVLIYLDKVSNQTLSLFFTVLQDVPVRDLKPAIVKVYDYYETDEFAIAEYNAPCSKDLGNA
As for B1, the neurite outgrowth of primary embryonic sensory neurons cultured for 2 weeks with RBD, compared to GST controls in assay [2] was more than 40 fold.
